Measured values from US20260125477A1 (BEIJING MABWORKS BIOTECH, published 2026).

T1: human B7-2/CD86 protein, with His tag (human, UniProt P42081 26-247, limits assumed)
T1 construct: Bought protein
T1 sequence (looked up): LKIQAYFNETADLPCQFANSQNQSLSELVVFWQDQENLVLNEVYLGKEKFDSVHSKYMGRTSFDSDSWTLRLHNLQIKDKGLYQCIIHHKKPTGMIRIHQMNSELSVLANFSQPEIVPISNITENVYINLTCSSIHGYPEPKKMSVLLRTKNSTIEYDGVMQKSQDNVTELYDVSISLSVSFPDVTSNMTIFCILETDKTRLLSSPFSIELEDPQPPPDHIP

T2: human PD-L2/B7-DC protein, with His tag (human, UniProt Q9BQ51 20-219, limits assumed)
T2 construct: Bought protein
T2 sequence (looked up): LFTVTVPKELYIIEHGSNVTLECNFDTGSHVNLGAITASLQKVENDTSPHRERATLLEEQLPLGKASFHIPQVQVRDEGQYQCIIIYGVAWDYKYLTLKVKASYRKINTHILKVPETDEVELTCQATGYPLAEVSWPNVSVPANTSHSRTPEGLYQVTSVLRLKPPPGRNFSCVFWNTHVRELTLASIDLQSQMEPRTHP

T3: human B7-H2/ICOSLG protein, with His tag (human, UniProt O75144 19-258, limits assumed)
T3 construct: Bought protein
T3 sequence (looked up): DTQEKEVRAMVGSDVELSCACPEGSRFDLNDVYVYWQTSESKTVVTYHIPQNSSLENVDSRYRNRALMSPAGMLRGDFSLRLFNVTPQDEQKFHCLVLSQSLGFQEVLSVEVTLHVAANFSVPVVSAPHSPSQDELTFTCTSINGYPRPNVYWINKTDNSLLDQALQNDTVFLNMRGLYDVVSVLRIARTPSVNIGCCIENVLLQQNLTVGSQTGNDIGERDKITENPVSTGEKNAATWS

B1: 6B5 (antibody, human IgG1, kappa, V domains shown)
VH: QVQLVESGPGLVKPSQTLSLTCTVSDGSISSGGYYWSWIRQHPGKGLEWIGYIYYSGGTYYSPSLKSRVTISVDTSKNQFSLKLTSVTAADTAVYYCARRAGYSSSFDSWGQGILVTVSS
VL: EIVLTQSPLSLPVTPGEPASISCRSSQSLLYSNGYTYLDWYLQKPGQSPQFLIYLGFNRASGVPDRFSGSGSGTDFTLKISRVEAEDVGVYYCMQGLQTPYTFGQGTKLEIKR
notes: also called 6B5-WT; Ab6B5
B2: 10F5 (antibody, human IgG1, kappa, V domains shown)
VH: QVQLVQSGAEVKKPGSSVKVSCKASGGTFSSQAISWVRQAPGQGLEWMGRIIPMLGIGDYAQSFQGRVTITADKSTSTAYLEVSSLGSEDTAVYYCAREGIAALGTNYYYGMDVWGQGTAVTVSS
VL: EIVMTQSPSSVSASVGDRVTITCRASQGISRWLAWYQQKPGKAPKLLIYVASSLQSGVPSRFSGSGSGTDFTLTISSLQPEDFATYYCQQANSFPFTFGPGTKVDIRR
notes: also called Ab10F5

Experiments:
[1] = biological target: T1, human B7-2/CD86 protein, with His tag; experiment: SPR (Biacore T200), 6B5 captured on Protein A chip; response against concentration
Description: (§1) The anti-human B7-H3 antibodies were tested for their binding capability to B7 family proteins by SPR using Biacore T200 biosensor (Biacore, US) provided with a pre-fixed Protein A sensor chip.
(§2) The dissociation was monitored for 600 sec. The data was analyzed using Biacore 8k evaluation software version 3.0, to obtain the binding responses, and the protein concentration-binding response curves were plotted, to determine the cross-reaction of the anti-human B7-H3 antibodies to the B7 family proteins.

[2] = biological target: T1, human B7-2/CD86 protein, with His tag; experiment: SPR (Biacore T200), antibody captured on Protein A chip
Description: as §1, §2

[3] = biological target: T2, human PD-L2/B7-DC protein, with His tag; experiment: as above
Description: as §1, §2

[4] = biological target: T3, human B7-H2/ICOSLG protein, with His tag; experiment: as above
Description: as §1, §2

Binder | binding result [1] | binding result [2] | binding result [3] | binding result [4]
B1 | no binding (tested: 200 nM) | – | – | –
B2 | – | no binding (tested: 200 nM) | no binding (tested: 200 nM) | no binding (tested: 200 nM)
